# Experimental data taken from IntAct's records for PubMed 9436979.
# B1: Mothers against decapentaplegic homolog 6 (Homo sapiens), O43541 (parent)
# chain: MFRSKRSGLVRRLWRSRVVPDREEGGSGGGGGGDEDGSLGSRAEPAPRAREGGGCGRSEVRPVAPRRPRDAVGQRGAQGAGRRRRAGGPPRPMSEPGAGAGSSLLDVAEPGGPGWLPESDCETVTCCLFSERDAAGAPRDASDPLAGAALEPAGGGRSREARSRLLLLEQELKTVTYSLLKRLKERSLDTLLEAVESRGGVPGGCVLVPRADLRLGGQPAPPQLLLGRLFRWPDLQHAVELKPLCGCHSFAAAADGPTVCCNPYHFSRLCGPESPPPPYSRLSPRDEYKPLDLSDSTLSYTETEATNSLITAPGEFSDASMSPDATKPSHWCSVAYWEHRTRVGRLYAVYDQAVSIFYDLPQGSGFCLGQLNLEQRSESVRRTRSKIGFGILLSKEPDGVWAYNRGEHPIFVNSPTLDAPGGRALVVRKVPPGYSIKVFDFERSGLQHAPEPDAADGPYDPNSVRISFAKGWGPCYSRQFITSCPCWLEILLNNPR
# Variants of: B1
# Conditions: with smad1_human SMAD1, Q15797
# Sequence of smad1_human SMAD1, Q15797 (Q15797 whole entry): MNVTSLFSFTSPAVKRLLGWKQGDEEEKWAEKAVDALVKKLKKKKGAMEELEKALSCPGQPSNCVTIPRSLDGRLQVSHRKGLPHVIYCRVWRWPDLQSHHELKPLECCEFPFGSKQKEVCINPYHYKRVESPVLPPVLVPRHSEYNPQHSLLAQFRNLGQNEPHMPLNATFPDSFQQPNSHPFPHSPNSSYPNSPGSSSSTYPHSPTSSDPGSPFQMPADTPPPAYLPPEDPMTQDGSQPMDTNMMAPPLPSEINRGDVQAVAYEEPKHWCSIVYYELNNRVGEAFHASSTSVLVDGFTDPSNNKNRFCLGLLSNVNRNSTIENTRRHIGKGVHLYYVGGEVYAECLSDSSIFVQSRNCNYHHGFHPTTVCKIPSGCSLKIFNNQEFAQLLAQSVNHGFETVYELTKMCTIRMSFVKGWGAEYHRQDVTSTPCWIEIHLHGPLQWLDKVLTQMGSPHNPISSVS
row,effect of a mutation on the interaction,Variant
1,disrupting interaction,G471S
